# Assay: label from the status in PepcDB records
row,Sequence,protein production
1,MYQKFKGGDLMIHGGDIYTEGVFKGRELLDYSSNINPLGIPKSFLNNIDEGIKNLGVYPDVNYRRLNKSIENYLKLKDIGIVLGNGASEIIELSISLFEKILIIVPSYAEYEINAKKHGVSVVFSYLDENMCIDYEDIISKIDDVDSVIIGNPNNPNGGLINKEKFIHVLKLAEEKKKTIIIDEAFIEFTGDPSSSFVGEIKNYSCLFIIRAMTKFFAMPGIRFGYGITNNKEIAAKIKAKQNPWNINCFAEMAAINCLKDTNYIEESLLWIKKERKRFIEELNKIGFIKRVFSPHANFVLCRLENISGEKLYDSLLKEDIVIRRCCNFIGLDDSFVRFAIKDEKKNTKFLRALKGVENNL,not failed
2,MSLKNSSRSAVDPFIVMDVMEAARRAEEAGRRIIHMEVGQPGTGAPRGAVEALAKSLETDALGYTVALGLPALRQRIARLYGEWYGVDLDPGRVVITPGSSGGFLLAFTALFDSGDRVGIGAPGYPSYRQILRALGLVPVDLPTAPENRLQPVPADFAGLDLAGLMVASPANPTGTMLDHAAMGALIEAAQAQGASFISDEIYHGIEYEAKAVTALELTDECYVINSFSKYFSMTGWRVGWMVVPEDQVRVVERIAQNMFICAPHASQVAALAALDCDAELQANLDVYKANRKLMLERLPKAGFTRIAPPDGAFYVYADVSDLTDDSRAFAAEILEKAGVAVTPGLDFDPERGAGTLRFSYARATADIEEGLDRLEAFMQARGEGHHHHHH,not failed
3,LMLACMNMARKKTGALIAIQQGIDLTPFAHTGEVFRAEVNARLVENIFFKNSPLHDGAMVIADNSIIAAGCILPVAYNTDLNKDLGLRHRSALGLSQETDAKIIIISEERGRISFAYRGEIHQDITTDELQLLLED,failed
4,MTKQSKTQIRICFVGDSFVNGTGDPECLGWTGRVCVNANKKGYDVTYYNLGIRRDTSSDIAKRWLQEVSLRLHKEYNSLVVFSFGLNDTTLENGKPRVSIAETIKNTREILTQAKKLYPVLMISPAPYIEQQDPGRRRRTIDLSQQLALVCQDLDVPYLDVFPLLEKPSVWLHEAKANDGVHPQAGGYTEFARIVENWDAWLNWFR,not failed
5,MKSTLIDNFTLLLWASLMASSFVVSEQLLPYANPIASTALRFILATILMMPFIGRASIKQLNYKILLRYSVISLFLVLFFIGLFEALKTTNAMRTSVIYTLLPLISVVLTYIGLKFVTPNKQIAGFLIGTLGAIWVLVAFTQGKLVLIEWRLGDSIFLVACCCLALHVILIKKWATDVPPMLGAFYIMLLGSLILLPFLIFFGDLNNIAWHEDEFWKVLLYLTLFTTIATFFLQQHLLKKVGPNRLLGFTYLIPSIVLIPQGLANMSQLYSVVPGIMLTFLALYLISPKHQ,failed
6,MTRSQNVLAGLLLAGLLAPHAVSAEGYQTPPPELAALVDAPRTPLQSLNPQGDAVLQTHRPGLPAIADVAQPELKLAGLRLNPRMRAASRFDFGSALTLLDVKSGKSRPVTGLPARPRIADNAWSPDGKQVALSLWGDRGVELWLLDAASARVRRLGDFHLNASSGRGFAWMGAQLLVKLLPAGQGPAPEKPSTPTGPNIQQSAGGALSQTRTYPDLLKTPYDADLLDYELNSQLALVDLSGRTKLIGKPDRYLSVQASPDRRYLLATKLQRPYSTLVPLNRFPRRIEVLNLQGDSVHLVAQRPLLERMPSGNDAVETGPREVQWRTDAPATLFWAEAQDGGDPSTPAKARDALYLLPAPFQQPPLKLQELASRFAGIQWGRGDLALVSEYWWKTRDLKVWRVRPAEPDHAPTLLNRRSSEDRYADPGSPAMVSNADGLPVLQTSPDGGSLYLLGEGASPEGDRPFIDQLNLADNKATRLWRSQAPWYEAPMAVLDGGKTALLSREQADAPPNLYLKTLGQGGGLKQLTFFPHPTPQLKNVQKRQLRYKRADGIDLTATLYLPPGYDAKRDGPLPMLMWAYPAEFKSADAASQVTDSPYRFNRVGYWGPEALLARGYVVLDDPSMPIVGAGKQEPNDTYLPQLKMDAQAAVDEVVRLGVADRDRIAIGGHSYGAFMTANLLAHTRLFRAGIARSGAYNRTLTPFGFQSEERDFWQAKDVYQAMSPFNYAEQIKDALLLIHGEADNNPGTFPIQSERMYQALQGLGGTVRLAMLPAESHGYRARESILHMLWEEDRWLDQFVKRAKPRAQGTAAR,failed
7,MAEVERPQLYLVTPPEIDLEIFPDRLAAVLDSTEVACLRLALAGKDEDRIARTGDALREVAHARDVALVIENHVLMVERLGLDGVHLTDGARLVRKLRKDLGPDAILGAFCGRTRHEGINAAEAGADYVAFGPVGTTALGDGSLAEAELFGWWSEMIEVPVVAEGALTPEKVAELAPLTDFFAVGEEIWREEDAAAALRRLLAPLGLEHHHHHH,not failed
8,MPKASLIIRERGLPKREVLLSPDRQWTIGRQLDCSIRLTDAYVSRLHAVINAFLFRGQPLYFIRDAHSRNGTFLNGFPLQHSTLLHHEDVIGVGTTLLVFYYPDMFREISLDECPLEHHHHHH,not failed
9,MGNLSKPVGIGAGGLDLLMPMHLRLDPLGEIAGCGPTLRKLFAESPVRRPFFDLFKVRRPTGIETPAALAARTGVRLHLTTLDGGVSLRGVATPKHEGRGLLLNLSFGISVIEAVRRHGLTDGDFAPTDLAVELLYLVEAKTAVAEELRRLNGRLERARRLAEEEALTDELTGLRNRRAIDQALEAVIATRRPFGLMHLDLDFFKEVNDSFGHAAGDEVLRAVAQVLSRETRTGDTVARIGGDEFMMLFPGLSDPAPMKRLAARVIADVARPIPFGGGVCRVSASIGMTLSVRYDRPDLARMLADADEALYAAKRAGRGTAVLSEGMRPERRRDP,failed
10,MLSLKKSLNPPSSFGWSDPDPCKWTHIVCTGTKRVTRIQIGHSGLQGTLSPDLRNLSELERLELQWNNISGPVPSLSGLASLQVLMLSNNNFDSIPSDVFQGLTSLQSVEIDNNPFKSWEIPESLRNASALQNFSANSANVSGSLPGFLGPDEFPGLSILHLAFNNLEGELPMSLAGSQVQSLWLNGQKLTGDITVLQNMTGLKEVWLHSNKFSGPLPDFSGLKELESLSLRDNSFTGPVPASLLSLESLKVVNLTNNHLQGPVPVFKSSVSVDLDKDSNSFCLSSPGECDPRVKSLLLIASSFDYPPRLAESWKGNDPCTNWIGIACSNGNITVISLEKMELTGTISPEFGAIKSLQRIILGINNLTGMIPQELTTLPNLKTLDVSSNKLFGKVPGFRSNVVVNTNGNPDIGKDKSSLSSPGSSSPSGGSGSGINGDKDRRGMKSSTFIGIIVGSVLGGLLSIFLIGLLVFCWYKKRQKRFSGSESSNAVVVHPRHSGSDNESVKITVAGSSVSVGGISDTYTLPGTSEVGDNIQMVEAGNMLISIQVLRSVTNNFSSDNILGSGGFGVVYKGELHDGTKIAVKRMENGVIAGKGFAEFKSEIAVLTKVRHRHLVTLLGYCLDGNEKLLVYEYMPQGTLSRHLFEWSEEGLKPLLWKQRLTLALDVARGVEYLHGLAHQSFIHRDLKPSNILLGDDMRAKVADFGLVRLAPEGKGSIETRIAGTFGYLAPEYAVTGRVTTKVDVYSFGVILMELITGRKSLDESQPEESIHLVSWFKRMYINKEASFKKAIDTTIDLDEETLASVHTVAELAGHCCAREPYQRPDMGHAVNILSSLVELWKPSDQNPEDIYGIDLDMSLPQALKKWQAYEGRSDLESSTSSLLPSLDNTQMSIPTRPYGFAESFTSVDGR,not failed
11,EMTDLQSTHKNFLFEIEEVGIKNLTYPVLIDQYQTAGLFSFSTSLNKNEKGINMSRILESVEKHYDNGIELEFNTLHQLLRTLQDKMNQNAAGVDVSGKWFFDRYSPVTNIKAVGHADVTYGLAIENHTVTRKELTIQAKVTTLCPCSKEISEYSAHNQRGIVTVKAYLDKNNDVIDDYKDKILDAMEANASSILYPILKRPDEKRVTERAYENPRFVEDLIRLIAADLVEFDWIEGFDIECRNEESIHQHDAFARLKYRK,not failed
12,MMLSMNRELIYLMLIFALLVIPRALQRFMVPAPLTCLLFGIGTMLVMGGKPHDDVIVLLSTLGISSLFLFAGLEVDLKALRRELWPLGVHLLVYSVALFCLGWLVWRYVGLTWQVAGLLALALLTPSPGFIIDSIGRLGLNEHERFWVVNKAIASELLALTVLFFVLQASDPWQMALSSGVLVALFVCLPLLFVALDRWVVPQAPGSEFSLLVMVGMIAAYATYKIGVYYLVGAFITGLIARLLHQRMPHLASEENLNAVRLFASFFVPFYFFRAGTNVSPQALSFEALGLGILITMVVLPLRIAVIWVQRRVLFGKGEDFRSSLRVSLALVPTLIFTLVLAGILRDRFSISEVLFGALLLYAAFTTLLPSLIFRLLSAWGVPSRSGDQASRETLPSSGMAG,failed
13,MFDNDRLLLRVLLFGLLGASLWVLAPFWSALFWAAVLAFASWPLMRMLTRLLGGRESLAAGLLTLGWIVLVALPLIWLGFGLADNVRSLMELLKNLQVEGLPPPPSWMAGVPLIGDRLIGWWDSIDQQGVAFFYVLKPYVGEVGNWLLARSAKIGGGILELVLSLILIFFFYRDGPRLESIVHRALERLIGNRAEHYRDLVAGTVQRVVNGVIGTAAAQALLAWIGFMIAGVPGAMLLGLLTFACSLLMVPPLVWGPATAWLFFKGDYGHGVFLGLWGFFIISGVDNILKPYLISRGGNLPLVVVLLGVFGGLLAFGFMGLFLGPILLAVAYNLLSDWIASTPRTPPGEGRGPDA,failed
14,MKSKFFAQNRERLVNTLPDESITILFAGQAPHMSADAHYKFVPNRNFYYVTGIDEPNVIFMLKKFGNSVEETLFIEKSDPVMEKWVGKTVSNEEAEKISGIKKVIYLDSFEKTMSNIFFTENVKHLYLDLECREWKGTETKTLAFAKHVREQYPHVTIGNVYPNICELRVFKTDEEIEIIKEAIAVTKDGIYNVLKHAKADMMEYELEAQFDFTLKSSGIKHHAFNTILASGKNATVLHYEDNDAQIQNGDLVLLDLGAQKDYYNADISYTFPANGTFSSRQKQIYNIVLNALKETTEIIKPGLKFAALNEHAKKVLAEGCKAVGLIQEDEELSKYYYHGVSHFLGLDTHDVGTYKDRVLEEGMVITIEPGLYIEEESIGIRIEDDILVTKDGHENLSKDIIREVEEIEEFMRENNVNVKQDEVVTK,not failed
15,MDTCGVGYVALGEAGPVGNMTVVDSPGQEVLNQLDVKTSSEMTSAEASVEMSLPTPLPGFEDSPDQRRLPPEQESLSRLEQPDLSSEMSKVSKPRASKPGRKRGGRTRKGPKRPQQPNPPSAPLVPGLLDQSNPLSTPMPKKRGRKSKAELLLLKLSKDLDRPESQSPKRPPEDFETPSGERPRRRAAQVALLYLQELAEELSTALPAPVSCPEGPKVSSPTKPKKIRQPAACPGGEEVDGAPRDEDFFLQVEAEDVEESEGPSESSSEPEPVVPRSTPRGSTSGKQKPHCRGMAPNGLPNHIMAPVWKCLHLTKDFREQKHSYWEFAEWIPLAWKWHLLSELEAAPYLPQEEKSPLFSVQREGLPEDGTLYRINRFSSITAHPERWDVSFFTGGPLWALDWCPVPEGAGASQYVALFSSPDMNETHPLSQLHSGPGLLQLWGLGTLQQESCPGNRAHFVYGIACDNGCIWDLKFCPSGAWELPGTPRKAPLLPRLGLLALACSDGKVLLFSLPHPEALLAQQPPDAVKPAIYKVQCVATLQVGSMQATDPSECGQCLSLAWMPTRPHQHLAAGYYNGMVVFWNLPTNSPLQRIRLSDGSLKLYPFQCFLAHDQAVRTLQWCKANSHFLVSAGSDRKIKFWDLRRPYEPINSIKRFLSTELAWLLPYNGVTVAQDNCYASYGLCGIHYIDAGYLGFKAYFTAPRKGTVWSLSGSDWLGTIAAGDISGELIAAILPDMALNPINVKRPVERRFPIYKADLIPYQDSPEGPDHSSASSGVPNPPKARTYTETVNHHYLLFQDTDLGSFHDLLRREPMLRMQEGEGHSQLCLDRLQLEAIHKVRFSPNLDSYGWLVSGGQSGLVRIHFVRGLASPLGHRMQLESRAHFNAMFQPSSPTRRPGFSPTSHRLLPTP,failed

# — a protein production outcome set (Wang et al. 2014)
